From US20260008815A1, “CYCLIC PEPTIDE OR SALT THEREOF, AND USES THEREOF” (FUJIFILM Corporation, priority 2023, published 2026)
Numbered stars: 1 amine (or outer) side, 2 acyl side, 3 side chain; on linkers, the order of the positions; unused ones are H or OH. Bridge positions count the residues as written; N and C are the ends. Ends that are not written are not given here. acetyl = acetyl (haloacetyl before ring closure) on the side-chain amine, O=C(C[*:1])[*:2]; COCH2 = acetyl group that carries the bridge

Molecular target: T1, Recombinant Human FGFR2 alpha (IIIc) Fc Chimera Protein (Homo sapiens, UniProt P21802)
T1 construct: Fc (chimera); purchased R&D systems 712-FR-050
Assay: ELISA binding affinity of enzymatically synthesized peptide to FGFR
Conditions: ELISA luminescence signal at 10 nmol/L peptide, SEQ ID NO: 47 at 10 nmol/L standardized to 1; enzyme synthesis product
Procedure, shortened: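 FGFR2 alpha (IIIc) Fc chimera (5 ng/well) was immobilized, and Myc-tagged peptide was bound 3 h at room temperature, then detected with anti-Myc antibody (2 h) and chemiluminescent substrate. Signal was corrected against FGFR-free wells. Score A–D was the luminescence at 10 nmol/L peptide, normalized to cyclic peptide SEQ ID NO: 47.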

T1 sequence (P21802 with tags, fused parts or gaps limits assumed): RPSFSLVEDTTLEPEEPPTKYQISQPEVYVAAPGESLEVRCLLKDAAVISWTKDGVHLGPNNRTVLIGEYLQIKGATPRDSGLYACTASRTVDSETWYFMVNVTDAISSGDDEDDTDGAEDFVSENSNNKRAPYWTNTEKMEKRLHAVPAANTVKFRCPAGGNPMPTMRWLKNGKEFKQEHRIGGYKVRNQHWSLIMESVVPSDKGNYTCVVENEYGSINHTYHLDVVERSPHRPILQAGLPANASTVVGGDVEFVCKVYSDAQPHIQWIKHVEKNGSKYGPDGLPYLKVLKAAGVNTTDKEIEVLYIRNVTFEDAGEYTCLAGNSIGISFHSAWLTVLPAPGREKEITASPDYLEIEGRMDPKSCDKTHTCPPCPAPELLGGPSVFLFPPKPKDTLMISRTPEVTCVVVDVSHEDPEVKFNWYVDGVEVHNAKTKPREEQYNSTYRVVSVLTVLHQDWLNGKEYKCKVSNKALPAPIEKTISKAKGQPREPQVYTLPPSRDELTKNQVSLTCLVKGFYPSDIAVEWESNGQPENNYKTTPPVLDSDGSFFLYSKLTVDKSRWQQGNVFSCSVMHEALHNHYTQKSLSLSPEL

Evaluation result of binding affinity to FGFR	Substance
A (0.7 or more)	86 (HCPQNFINPVQWRYFQHYK(COCH2)N; thioether 2-19 (inferred)) [compound 86]
A (0.7 or more)	206 (YCEENYHDPEQYQYFIYFK(COCH2)Y; thioether 2-19 (inferred)) [compound 206]
A (0.7 or more)	73 (LCPQNFINPVQWRYFQHYK(COCH2)N; thioether 2-19 (inferred)) [compound 73]
A (0.7 or more)	175 (YCEQNYLDPEQYQYFIYFK(COCH2)Y; thioether 2-19 (inferred)) [compound 175]
C (0.1 or more and less than 0.5)	413 (QCDQDAIQWVYDLQYYRVWHKV; Description of Artificial Sequence: Cyclic peptide) [compound 413]
C (0.1 or more and less than 0.5)	182 (YCEEWYLDPEQYQYFIYFK(COCH2)Y; thioether 2-19 (inferred)) [compound 182]
A (0.7 or more)	359 (YCEENYLDPEQYQYFIMFK(COCH2)Y; thioether 2-19) [compound 359]
A (0.7 or more)	216 (YCEENYLSPEQYQYFIYFK(COCH2)Y; thioether 2-19 (inferred)) [compound 216]
C (0.1 or more and less than 0.5)	371 (DCQLWYLYQYLIVK(COCH2)A; thioether 2-14) [compound 371]
C (0.1 or more and less than 0.5)	426 (PCDPLNLQQWYTAVYQLWHK(COCH2)R; thioether 2-20 via acetyl) [compound 426]
A (0.7 or more)	301 (YCEENYLDPEQYQYFITFK(COCH2)Y; thioether 2-19 (inferred)) [compound 301]
A (0.7 or more)	234 (YCEENYLDREQYQYFIYFK(COCH2)Y; thioether 2-19 (inferred)) [compound 234]
B (0.5 or more and less than 0.7)	261 (YCEENYLDPEQYFYFIYFK(COCH2)Y; thioether 2-19) [compound 261]
A (0.7 or more)	255 (YCEENYLDPEQWQYFIYFK(COCH2)Y; thioether 2-19 (inferred)) [compound 255]
C (0.1 or more and less than 0.5)	193 (YCEENRLDPEQYQYFIYFK(COCH2)Y; thioether 2-19 (inferred)) [compound 193]
A (0.7 or more)	198 (YCEENYYDPEQYQYFIYFK(COCH2)Y; thioether 2-19 (inferred)) [compound 198]
A (0.7 or more)	310 (YCEENYLDPEQYQYFIYFK(COCH2)I; thioether 2-19 (inferred)) [compound 310]
A (0.7 or more)	157 (YCYENYLDPEQYQYFIYFK(COCH2)Y; thioether 2-19 (inferred)) [compound 157]
A (0.7 or more)	238 (YCEENYLDPLQYQYFIYFK(COCH2)Y; thioether 2-19 (inferred)) [compound 238]
C (0.1 or more and less than 0.5)	377 (HCLHYLYQYLYTVK(COCH2)Y; thioether 2-14 (inferred)) [compound 377]

Evaluation result of binding affinity to FGFR	Substance
A (0.7 or more)	305 (YCEENYLDPEQYQYFIHFK(COCH2)Y; thioether 2-19 (inferred)) [compound 305]
A (0.7 or more)	299 (YCEENYLDPEQYQYFIQFK(COCH2)Y; thioether 2-19) [compound 299]
A (0.7 or more)	342 (YCEENYLDPKQYQYFIYFK(COCH2)Y; thioether 2-19) [compound 342]
C (0.1 or more and less than 0.5)	408 (HCSQHQTTYYQIYAYLHAIK(COCH2)I; thioether 2-20 (inferred)) [compound 408]
A (0.7 or more)	138 (LCEENYLDPEQYQYFIYFK(COCH2)Y; thioether 2-19 (inferred)) [compound 138]
A (0.7 or more)	240 (YCEENYLDPVQYQYFIYFK(COCH2)Y; thioether 2-19 (inferred)) [compound 240]
C (0.1 or more and less than 0.5)	110 (QCQTDHQQQLYFIYQYLQK(COCH2)I; thioether 2-19 (inferred)) [compound 110]
A (0.7 or more)	40 (DCSGNFFSKEQFHYLELFK(COCH2)K; thioether 2-19 (inferred)) [compound 40]
A (0.7 or more)	356 (YCEENYLDPEQYMYFIYFK(COCH2)Y; thioether 2-19) [compound 356]
A (0.7 or more)	319 (YCEENYLDPEQYQYFIYFK(COCH2)E; thioether 2-19 (inferred)) [compound 319]
C (0.1 or more and less than 0.5)	414 (YCNYEWDGARRQIAYYRIFLKL; Description of Artificial Sequence: Cyclic peptide) [compound 414]
A (0.7 or more)	106 (QCPQNFINPVQHRYFQHYK(COCH2)N; thioether 2-19 (inferred)) [compound 106]
C (0.1 or more and less than 0.5)	404 (DCIRPYDQLQLIYQYLYQLK(COCH2)K; thioether 2-20 (inferred)) [compound 404]
C (0.1 or more and less than 0.5)	340 (YCEENYLKPEQYQYFIYFK(COCH2)Y; thioether 2-19) [compound 340]
A (0.7 or more)	60 (KCPQNFINAVQWRYFQHYK(COCH2)N; thioether 2-19 (inferred)) [compound 60]
A (0.7 or more)	177 (YCETNYLDPEQYQYFIYFK(COCH2)Y; thioether 2-19 (inferred)) [compound 177]
C (0.1 or more and less than 0.5)	62 (KCPQNFINPVQARYFQHYK(COCH2)N; thioether 2-19 (inferred)) [compound 62]
A (0.7 or more)	265 (YCEENYLDPEQYSYFIYFK(COCH2)Y; thioether 2-19) [compound 265]
A (0.7 or more)	166 (YCEGNYLDPEQYQYFIYFK(COCH2)Y; thioether 2-19 (inferred)) [compound 166]
A (0.7 or more)	188 (YCEENWLDPEQYQYFIYFK(COCH2)Y; thioether 2-19 (inferred)) [compound 188]

Evaluation result of binding affinity to FGFR	Substance
A (0.7 or more)	335 (KCEENYLDPEQYQYFIYFK(COCH2)Y; thioether 2-19 (inferred)) [compound 335]
A (0.7 or more)	331 (YCEENYLDPEQYAYFIYFK(COCH2)Y; thioether 2-19 (inferred)) [compound 331]
A (0.7 or more)	358 (YCEENYLDPEQYQYFMYFK(COCH2)Y; thioether 2-19) [compound 358]
C (0.1 or more and less than 0.5)	376 (QCIQDLYLYLYFLK(COCH2)T; thioether 2-14 (inferred)) [compound 376]
A (0.7 or more)	334 (YCEENYLDPEQYQYFIYFK(COCH2)A; thioether 2-19 (inferred)) [compound 334]
A (0.7 or more)	295 (YCEENYLDPEQYQYFIVFK(COCH2)Y; thioether 2-19) [compound 295]
A (0.7 or more)	232 (YCEENYLDDEQYQYFIYFK(COCH2)Y; thioether 2-19 (inferred)) [compound 232]
C (0.1 or more and less than 0.5)	95 (QCPQGFINPVQWRYFQHYK(COCH2)N; thioether 2-19) [compound 95]
A (0.7 or more)	131 (YCEENYLDPEQYQYFIYFK(COCH2)Y; thioether 2-19 (inferred)) [compound 131]
B (0.5 or more and less than 0.7)	386 (RCHHNFHHARQWGFFHHYK(COCH2)R; thioether 2-19 (inferred)) [compound 386]
C (0.1 or more and less than 0.5)	429 (YCHENYLDPEQYQYFHYFK(COCH2); thioether 2-19 via acetyl) [compound 429]
A (0.7 or more)	176 (YCESNYLDPEQYQYFIYFK(COCH2)Y; thioether 2-19 (inferred)) [compound 176]
C (0.1 or more and less than 0.5)	185 (YCEETYLDPEQYQYFIYFK(COCH2)Y; thioether 2-19 (inferred)) [compound 185]
A (0.7 or more)	303 (YCEENYLDPEQYQYFIEFK(COCH2)Y; thioether 2-19 (inferred)) [compound 303]
A (0.7 or more)	259 (YCEENYLDPEQYIYFIYFK(COCH2)Y; thioether 2-19 (inferred)) [compound 259]
A (0.7 or more)	314 (YCEENYLDPEQYQYFIYFK(COCH2)N; thioether 2-19 (inferred)) [compound 314]
C (0.1 or more and less than 0.5)	370 (DCQLYYLYQYVLTK(COCH2)V; thioether 2-14) [compound 370]
A (0.7 or more)	164 (YCRENYLDPEQYQYFIYFK(COCH2)Y; thioether 2-19 (inferred)) [compound 164]
